Assay results published in patent US20120316071A1 (published 2012).
Substitutions are numbered along the chain they refer to. Names and notes keep the numbering of the source.

B1: Fab VH5-51_IGHD5-18*01>3_IGHJ4*01 G100K/G104T & V3-4_IGLJ1*01 M94E (Fab, V domains shown)
VH: EVQLVQSGAEVKKPGESLKISCKGSGYSFTSYWIGWVRQMPGKGLEWMGIIYPGDSDTRYSPSFQGQVTISADKSISTAYLQWSSLKASDTAMYYCARRKYSYTYDYFDYWGQGTLVTVSS
VL: QTVVTQEPSFSVSPGGTVTLTCGLSSGSVSTSYYPSWYQQTPGQAPRTLIYSTNTRSSGVPDRFSGSILGNKAALTITGAQADDESDYYCVLYEGSGISYVFGTGTKVTVL
notes: Fab; expressed with CH1 (His and Flag tags) and lambda CL from the expression plasmids; also called H:KT & M94E
B2: Fab VH5-51_IGHD5-18*01>3_IGHJ4*01 G100K/G104T & V3-4_IGLJ1*01 M94L (Fab, V domains shown)
VH: B1 VH
VL: B1 VL with E94L
notes: Fab; expressed with CH1 (His and Flag tags) and lambda CL from the expression plasmids; also called H:KT & M94L
B3: Fab VH5-51_IGHD5-18*01>3_IGHJ4*01 G100K/G104T & V3-4_IGLJ1*01 M94P (Fab, V domains shown)
VH: B1 VH
VL: B1 VL with E94P
notes: Fab; expressed with CH1 (His and Flag tags) and lambda CL from the expression plasmids; also called H:KT & M94P
B4: Fab VH5-51_IGHD5-18*01>3_IGHJ4*01 G100K/G104T & V3-4_IGLJ1*01 M94V (Fab, V domains shown)
VH: B1 VH
VL: B1 VL with E94V
notes: Fab; expressed with CH1 (His and Flag tags) and lambda CL from the expression plasmids; also called H:KT & M94V
B5: Fab VH5-51_IGHD5-18*01>3_IGHJ4*01 G100K/G104T & V3-4_IGLJ1*01 S96G (Fab, V domains shown)
VH: B1 VH
VL: B1 VL with E94M, S96G
notes: Fab; expressed with CH1 (His and Flag tags) and lambda CL from the expression plasmids; also called H:KT & S96G
B6: Fab VH5-51_IGHD5-18*01>3_IGHJ4*01 G100K/G104T & V3-4_IGLJ1*01 M94T (Fab, V domains shown)
VH: B1 VH
VL: B1 VL with E94T
notes: Fab; expressed with CH1 (His and Flag tags) and lambda CL from the expression plasmids; also called H:KT & M94T
B7: Fab VH5-51_IGHD5-18*01>3_IGHJ4*01 G100K/G104T & V3-4_IGLJ1*01 V91C (Fab, V domains shown)
VH: B1 VH
VL: B1 VL with V91C, E94M
notes: Fab; expressed with CH1 (His and Flag tags) and lambda CL from the expression plasmids; also called H:KT & V91C
B8: Fab VH5-51_IGHD5-18*01>3_IGHJ4*01 G100K/G104T & V3-4_IGLJ1*01 V91E (Fab, V domains shown)
VH: B1 VH
VL: B1 VL with V91E, E94M
notes: Fab; expressed with CH1 (His and Flag tags) and lambda CL from the expression plasmids; also called H:KT & V91E
B9: Fab VH5-51_IGHD5-18*01>3_IGHJ4*01 G100K/G104T & V3-4_IGLJ1*01 M94N (Fab, V domains shown)
VH: B1 VH
VL: B1 VL with E94N
notes: Fab; expressed with CH1 (His and Flag tags) and lambda CL from the expression plasmids; also called H:KT & M94N
B10: Fab VH5-51_IGHD5-18*01>3_IGHJ4*01 G100K/G104T & V3-4_IGLJ1*01 S96W (Fab, V domains shown)
VH: B1 VH
VL: B1 VL with E94M, S96W
notes: Fab; expressed with CH1 (His and Flag tags) and lambda CL from the expression plasmids; also called H:KT & S96W
B11: Fab VH5-51_IGHD5-18*01>3_IGHJ4*01 G100K/G104T G24T/S28R/G35V & V3-4_IGLJ1*01 V91L/S96P T53Q (Fab, V domains shown)
VH: B1 VH with G24T, S28R, G35V
VL: B1 VL with T53Q, V91L, E94M, S96P
notes: Fab expressed in E. coli; heavy chain vector adds CH1 with His6 and Flag tags, light chain vector adds lambda CL; also called H:KT TRV & L:LP T53Q
B12: Fab VH5-51_IGHD5-18*01>3_IGHJ4*01 G100K/G104T G24T/S28R/G35V & V3-4_IGLJ1*01 V91L/S96P T53P (Fab, V domains shown)
VH: B1 VH with G24T, S28R, G35V
VL: B1 VL with T53P, V91L, E94M, S96P
notes: Fab expressed in E. coli; heavy chain vector adds CH1 with His6 and Flag tags, light chain vector adds lambda CL; also called H:KT TRV & L:LP T53P
B13: Fab VH5-51_IGHD5-18*01>3_IGHJ4*01 G100K/G104T G24T/S28R/G35V & V3-4_IGLJ1*01 V91L/S96P T53Y (Fab, V domains shown)
VH: B1 VH with G24T, S28R, G35V
VL: B1 VL with T53Y, V91L, E94M, S96P
notes: Fab expressed in E. coli; heavy chain vector adds CH1 with His6 and Flag tags, light chain vector adds lambda CL; also called H:KT TRV & L:LP T53Y
B14: Fab VH5-51_IGHD5-18*01>3_IGHJ4*01 G100K/G104T G24T/S28R/G35V & V3-4_IGLJ1*01 V91L/S96P T53K (Fab, V domains shown)
VH: B1 VH with G24T, S28R, G35V
VL: B1 VL with T53K, V91L, E94M, S96P
notes: Fab expressed in E. coli; heavy chain vector adds CH1 with His6 and Flag tags, light chain vector adds lambda CL; also called H:KT TRV & L:LP T53K
B15: Fab VH5-51_IGHD5-18*01>3_IGHJ4*01 G100K/G104T G24T/S28R/G35V & V3-4_IGLJ1*01 V91L/S96P T53N (Fab, V domains shown)
VH: B1 VH with G24T, S28R, G35V
VL: B1 VL with T53N, V91L, E94M, S96P
notes: Fab expressed in E. coli; heavy chain vector adds CH1 with His6 and Flag tags, light chain vector adds lambda CL; also called H:KT TRV & L:LP T53N
B16: Fab VH5-51_IGHD5-18*01>3_IGHJ4*01 G100K/G104T G24T/S28R/G35V & V3-4_IGLJ1*01 V91L/S96P T53I (Fab, V domains shown)
VH: B1 VH with G24T, S28R, G35V
VL: B1 VL with T53I, V91L, E94M, S96P
notes: Fab expressed in E. coli; heavy chain vector adds CH1 with His6 and Flag tags, light chain vector adds lambda CL; also called H:KT TRV & L:LP T53I
B17: Fab VH5-51_IGHD5-18*01>3_IGHJ4*01 G100K/G104T G24T/S28R/G35V & V3-4_IGLJ1*01 V91L/S96P T53V (Fab, V domains shown)
VH: B1 VH with G24T, S28R, G35V
VL: B1 VL with T53V, V91L, E94M, S96P
notes: Fab expressed in E. coli; heavy chain vector adds CH1 with His6 and Flag tags, light chain vector adds lambda CL; also called H:KT TRV & L:LP T53V
B18: Fab VH5-51_IGHD5-18*01>3_IGHJ4*01 G100K/G104T G24T/S28R/G35V & V3-4_IGLJ1*01 V91L/S96P T53L (Fab, V domains shown)
VH: B1 VH with G24T, S28R, G35V
VL: B1 VL with T53L, V91L, E94M, S96P
notes: Fab expressed in E. coli; heavy chain vector adds CH1 with His6 and Flag tags, light chain vector adds lambda CL; also called H:KT TRV & L:LP T53L
B19: Fab VH5-51_IGHD5-18*01>3_IGHJ4*01 G100K/G104T G24T/S28R/G35V & V3-4_IGLJ1*01 V91L/S96P T53S (Fab, V domains shown)
VH: B1 VH with G24T, S28R, G35V
VL: B1 VL with T53S, V91L, E94M, S96P
notes: Fab expressed in E. coli; heavy chain vector adds CH1 with His6 and Flag tags, light chain vector adds lambda CL; also called H:KT TRV & L:LP T53S

Target: T1, Recombinant Human DLL4 (delta-like protein 4) (human, UniProt Q9NR61 27-524)
T1 construct: Bought recombinant human DLL4 (R&D Systems Cat#1506-D4/CF); also called rHuman DLL4
Test: ELISA, DLL4-coated plate, 100 nM Fab

ELISA Signal [100 nM Fab] | Binder
0.01 | B1
0.02 | B2
0.01 | B3
0.02 | B4
0.01 | B5
0.02 | B6
0.02 | B7
0 | B8
0.01 | B9
0.02 | B10

Target: T2, Recombinant Human DLL4 (delta-like protein 4) (human, UniProt Q9NR61 27-524)
T2 construct: also called rHuman DLL4; Delta-like 4
Test: ELISA, DLL4 coated on plate, Fab at 100 nM

ELISA Signal-blank (100 nM Fab) | Binder
0.11 | B11
0.39 | B12
0.22 | B13
0.12 | B14
0.15 | B15
0.3 | B16
0.29 | B17
0.18 | B18
0.18 | B19

Target: T1, Recombinant Human DLL4 (delta-like …)
Test: ECL (MSD) binding assay, immobilised DLL4, 10 nM Fab;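 note: fab binding read as electrochemiluminescence via a TAG-labelled detection antibody, 1 h incubations at 20 °C, antigen signal compared with each well's blank, ratio of at least 4 scored as binder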

ECL Signal [10 nM Fab] | Binder
32500 | B1
46800 | B2
39900 | B3
47300 | B4
40400 | B5
43000 | B6
38300 | B7
22500 | B8
51300 | B9
52300 | B10
